Experimental data taken from patent publication US20240117018A1.

Columns and labels:
Test in all cases: cell-based or functional assay
[1] = molecular target: HIV-1 Env of pseudovirus CNE20 (HIV-1)
[2] = molecular target: HIV-1 Env of pseudovirus T257-31 (HIV-1)
[3] = molecular target: HIV-1 Env of pseudovirus 3365.v2.c2 (HIV-1)
[4] = molecular target: HIV-1 Env of pseudovirus RHPA4259.7 (HIV-1)
[5] = molecular target: HIV-1 Env of pseudovirus CNE17 (HIV-1)
[6] = molecular target: HIV-1 Env of pseudovirus 1056_10_TA11_1826 (HIV-1)
[7] = molecular target: HIV-1 Env of pseudovirus ZM249M.PL1 (HIV-1)
[8] = molecular target: HIV-1 Env of pseudovirus REJO4541.67 (HIV-1)
[9] = molecular target: HIV-1 Env of pseudovirus 7030102001E5(Rev-) (HIV-1)
[10] = molecular target: HIV-1 Env of pseudovirus Q461.e2 (HIV-1)
[11] = molecular target: HIV-1 Env of pseudovirus BF1266.431a (HIV-1)
[12] = molecular target: HIV-1 Env of pseudovirus HIV-0013095-2.11 (HIV-1)
[13] = molecular target: HIV-1 Env of pseudovirus Q259.d2.17 (HIV-1)
[14] = molecular target: HIV-1 Env of pseudovirus 249M B10 (HIV-1)
[15] = molecular target: HIV-1 Env of pseudovirus 1006_11_C3_1601 (HIV-1)
[16] = molecular target: HIV-1 Env of pseudovirus CNE19 (HIV-1)
[17] = molecular target: HIV-1 Env of pseudovirus CNE58 (HIV-1)
[18] = molecular target: HIV-1 Env of pseudovirus SC422661.8 (HIV-1)
[19] = molecular target: HIV-1 Env of pseudovirus Du422.1 (HIV-1)
[20] = molecular target: HIV-1 Env of pseudovirus ZM214M.PL15 (HIV-1)
[21] = molecular target: HIV-1 Env of pseudovirus Du156.12 (HIV-1)
[22] = molecular target: HIV-1 Env of pseudovirus Du172.17 (HIV-1)
[23] = molecular target: HIV-1 Env of pseudovirus ZM197M.PB7 (HIV-1)
[24] = molecular target: HIV-1 Env of pseudovirus Ce2060_G9 (HIV-1)
[25] = molecular target: HIV-1 Env of pseudovirus 1012_11_TC21_3257 (HIV-1)
[26] = molecular target: HIV-1 Env of pseudovirus 3415.v1.c1 (HIV-1)
[27] = molecular target: HIV-1 Env of pseudovirus Ce1086_B2 (HIV-1)
[28] = molecular target: HIV-1 Env of pseudovirus CNE21 (HIV-1)

VRC07 (antibody)
IC50 [1]: 0.06 mg/L | IC80 [1]: 0.129 mg/L | IC50 [2]: 0.421 mg/L | IC80 [2]: 3.17 mg/L | IC50 [3]: 0.038 mg/L | IC80 [3]: 0.109 mg/L | IC50 [4]: 0.017 mg/L | IC80 [4]: 0.048 mg/L | IC50 [5]: 0.136 mg/L | IC80 [5]: 0.651 mg/L | IC50 [6]: 0.239 mg/L | IC80 [6]: 1.11 mg/L | IC50 [7]: 0.041 mg/L | IC80 [7]: 0.145 mg/L | IC50 [8]: 0.011 mg/L | IC80 [8]: 0.037 mg/L | IC50 [9]: 0.205 mg/L | IC80 [9]: 0.911 mg/L | IC50 [10]: 0.282 mg/L | IC80 [10]: 1.02 mg/L | IC50 [11]: 0.032 mg/L | IC80 [11]: 0.117 mg/L | IC50 [12]: 0.017 mg/L | IC80 [12]: 0.057 mg/L | IC50 [13]: 0.024 mg/L | IC80 [13]: 0.1 mg/L | IC50 [14]: 0.052 mg/L | IC80 [14]: 0.204 mg/L | IC50 [15]: 0.015 mg/L | IC80 [15]: 0.046 mg/L | IC50 [16]: 0.092 mg/L | IC80 [16]: 0.232 mg/L | IC50 [17]: 0.11 mg/L | IC80 [17]: 0.298 mg/L | IC50 [18]: 0.054 mg/L | IC80 [18]: 0.175 mg/L | IC50 [19]: > 50 mg/L | IC80 [19]: > 50 mg/L | IC50 [20]: 0.198 mg/L | IC80 [20]: 1.42 mg/L | IC50 [21]: 0.041 mg/L | IC80 [21]: 0.149 mg/L | IC50 [22]: 0.796 mg/L | IC80 [22]: 3.66 mg/L | IC50 [23]: 0.307 mg/L | IC80 [23]: 1.27 mg/L | IC50 [24]: 0.085 mg/L | IC80 [24]: 0.422 mg/L | IC50 [25]: 0.014 mg/L | IC80 [25]: 0.045 mg/L | IC50 [26]: 0.036 mg/L | IC80 [26]: 0.152 mg/L | IC50 [27]: 0.128 mg/L | IC80 [27]: 0.84 mg/L | IC50 [28]: 0.05 mg/L | IC80 [28]: 0.222 mg/L
